# Laboratory results taken from the supplement of paper PMC9112550, “Optimization of the antimicrobial peptide Bac7 by deep mutational scanning” (BMC Biology, 2022).
# Test system: Escherichia coli TOP10
# Assay: shrunken log2 fold change of peptide-encoding DNA abundance (4.5 h post-induction vs induction); higher = less antimicrobial activity (less host growth inhibition)
# Details: time post-induction: 4.5 h; library: site-saturation at positions 5, 18, 19, 20
# 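Further: peptides expressed intracellularly from a pBAD plasmid library in pooled LB shake-flask culture, induced with 0.3% L-arabinose, DNA abundance read by NGS, three biological replicates, DESeq2 with apeglm shrinkage.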
row,Sequence,shrunken log2 fold change
1,RRIRCRPPRLPRPRPRPEHPPRP,-0.131
2,RRIRIRPPRLPRPRPRPWQMPRP,0.0562
3,RRIRMRPPRLPRPRPRPISKPRP,0.316
4,RRIRYRPPRLPRPRPRPTKRPRP,-0.028
5,RRIRLRPPRLPRPRPRPAFSPRP,0.106
6,RRIRHRPPRLPRPRPRPSPDPRP,-0.293
7,RRIRRRPPRLPRPRPRPLNYPRP,-0.365
8,RRIRERPPRLPRPRPRPMVHPRP,-0.281
9,RRIRHRPPRLPRPRPRPIGAPRP,0.173
10,RRIRKRPPRLPRPRPRPEFLPRP,-0.00158
11,RRIRPRPPRLPRPRPRPHNQPRP,-0.378
12,RRIRCRPPRLPRPRPRPWEKPRP,0.0651
13,RRIRIRPPRLPRPRPRPCFKPRP,-1.04
14,RRIRGRPPRLPRPRPRPPQKPRP,1.35
15,RRIRARPPRLPRPRPRPAHWPRP,0.535
16,RRIRIRPPRLPRPRPRPYLKPRP,0.000419
17,RRIRSRPPRLPRPRPRPQQSPRP,-0.235
18,RRIRHRPPRLPRPRPRPMAPPRP,0.0599
19,RRIRMRPPRLPRPRPRPKLCPRP,0.438
20,RRIRGRPPRLPRPRPRPHVEPRP,0.36

row,Sequence,shrunken log2 fold change
1,RRIRGRPPRLPRPRPRPIKFPRP,0.211
2,RRIRQRPPRLPRPRPRPTDMPRP,-0.0372
3,RRIRSRPPRLPRPRPRPVMRPRP,0.594
4,RRIRMRPPRLPRPRPRPHNSPRP,-0.171
5,RRIRQRPPRLPRPRPRPGPQPRP,0.722
6,RRIRTRPPRLPRPRPRPHMAPRP,-0.123
7,RRIRPRPPRLPRPRPRPPNFPRP,0.0501
8,RRIRIRPPRLPRPRPRPVAGPRP,-0.0858
9,RRIRRRPPRLPRPRPRPDFDPRP,0.291
10,RRIRMRPPRLPRPRPRPNCTPRP,-0.15
11,RRIRIRPPRLPRPRPRPWAPPRP,-0.19
12,RRIRCRPPRLPRPRPRPYIVPRP,-0.168
13,RRIRQRPPRLPRPRPRPPSVPRP,0.0958
14,RRIRCRPPRLPRPRPRPQRQPRP,0.0683
15,RRIRDRPPRLPRPRPRPMCQPRP,0.0359
16,RRIRKRPPRLPRPRPRPELTPRP,2.29
17,RRIRMRPPRLPRPRPRPMDMPRP,0.482
18,RRIRRRPPRLPRPRPRPEEIPRP,-0.0243
19,RRIRVRPPRLPRPRPRPWARPRP,0.416
20,RRIRKRPPRLPRPRPRPHITPRP,-0.167

row,Sequence,shrunken log2 fold change
1,RRIRARPPRLPRPRPRPDRWPRP,0.685
2,RRIRYRPPRLPRPRPRPSPMPRP,-0.486
3,RRIRFRPPRLPRPRPRPTSFPRP,0.0329
4,RRIRDRPPRLPRPRPRPEMPPRP,0.0164
5,RRIRMRPPRLPRPRPRPWFIPRP,-0.183
6,RRIRVRPPRLPRPRPRPGANPRP,0.222
7,RRIRLRPPRLPRPRPRPDQSPRP,0.0621
8,RRIRNRPPRLPRPRPRPILKPRP,0.0926
9,RRIRKRPPRLPRPRPRPHWKPRP,-0.00804
10,RRIRERPPRLPRPRPRPEARPRP,0.164
11,RRIRGRPPRLPRPRPRPHGEPRP,0.164
12,RRIRCRPPRLPRPRPRPQIPPRP,-0.126
13,RRIRQRPPRLPRPRPRPMCQPRP,-0.053
14,RRIRERPPRLPRPRPRPWHTPRP,-0.16
15,RRIRTRPPRLPRPRPRPTINPRP,-0.565
16,RRIRRRPPRLPRPRPRPEKKPRP,0.0396
17,RRIRPRPPRLPRPRPRPVIRPRP,-0.074
18,RRIRVRPPRLPRPRPRPFSEPRP,-0.237
19,RRIRIRPPRLPRPRPRPLWYPRP,-0.551
20,RRIRKRPPRLPRPRPRPRTTPRP,0.792
